This is an account of results in article PMC2920321, “Characterization of ftsZ Mutations that Render Bacillus subtilis Resistant to MinC” (PLoS ONE, 2010).

The chains are these.
B1: wild type FtsZ (Bacillus subtilis) [B. subtilis] / itself (parent)
chain: MLEFETNIDGLASIKVIGVGGGGNNAVNRMIENEVQGVEYIAVNTDAQALNLSKAEVKMQIGAKLTRGLGAGANPEVGKKAAEESKEQIEEALKGADMVFVTAGMGGGTGTGAAPVIAQIAKDLGALTVGVVTRPFTFEGRKRQLQAAGGISAMKEAVDTLIVIPNDRILEIVDKNTPMLEAFREADNVLRQGVQGISDLIATPGLINLDFADVKTIMSNKGSALMGIGIATGENRAAEAAKKAISSPLLEAAIDGAQGVLMNITGGTNLSLYEVQEAADIVASASDQDVNMIFGSVINENLKDEIVVTVIATGFIEQEKDVTKPQRPSLNQSIKTHNQSVPKREPKREEPQQQNTVSRHTSQPADDTLDIPTFLRNRNKRG

Variants of B1 are the subject of this test. Description: sedimentation assay (ultracentrifugation). Conditions: with itself, 10 µM FtsZ, 50 mM Hepes/NaOH, 50 mM KCl, 10 mM MgCl2, pH 7.5, 30°C, 5 min, read off a plot.

Take MLEFETNIDGLASIKVIGVGGGGNNAVNRMIENEVQGVEYIAVNTDAQALNLSKAEVKMQIGAKLTRGLGAGANPEVGKKAAEESKEQIEEALKGADMVFVTAGMGGGTGTGAAPVIAQIAKDLGALTVGVVTRPFTFEGRKRQLQAAGGISAMKEAVDTLIVIPNDRILEIVDKNTPMLEAFREADNVLRQGVQGISDLIATPGLINLDFADVKTIMSNKGSALMGIGIATGENRAAEAAKKAISSPLLEAAIDGAQGVLMNITGGTNLSLYEVQEAADIVASASDQDVNMIFGSVINENPKDEIVVTVIATGFIEQEKDVTKPQRPSLNQSIKTHNQSVPKREPKREEPQRQNTVSRHTSQPADDTLDIPTFLRNRNKRG [chain 1 L302P Q353R]: the response (% FtsZ in pellet) was 18 (1 mM GDP (control)) and 29 (1 mM GTP).
Regarding MLEFETNIDGLASIKVIGVGGGGNNAVNRMIENEVQGVEYIAVNTDAQALNLSKAEVKMQIGAKLTRGLGAGANPEVGKKAAEESKEQIEEALKGADMVFVTAGMGGGTGTGAAPVIAQIAKDLGALTVGVVTRPFTFEGRKRQLQAAGGISAMKEAVDTLIVIPNDRILEIVDKNTPMLEAFREADNVLRQGVQGISDLIATPGLINLDFADVKTIMSNKGSALMGIGIATGENRAAEAAKKAISSPLLEAAIDGAQGVLMNITGGTNLSLYEVQEAADIVASTSDQDVNMIFGSVINENLKDEIVVTVIATGFIEQEKDVTKPQRPSLNQSIKTHNQSVPKREPKREEPQQQNTVSRHTSQPADDTLDIPTFLRNRNKRG [chain 1 A285T], the response (% FtsZ in pellet) by setting is: (1 mM GDP (control)) 28; (1 mM GTP) 25.
For MLEFETNIDGLASIKVIGVGGGGNNAVNRMIENEVQGVEYIAVNTDAQALNLSKAEVKMQIGAKLTRGLGAGANPEVGKKAAEESKEQIEEALKGADMVFVTAGMGGGTGTGAAPVIAQIAKDLGALTVGVVTRPFTFEGRKRQLQAAGGISAMKEAVDTLIVIPNDRILEIVDKNTPMLEAFREADNVLRQGVQGISDLIATPGLINLDFADVKTIMLNKGSALMGIGIATGENRAAEAAKKAISSPLLEAAIDGAQGVLMNITGGTNLSLYEVQEAADIVASASDQDVNMIFGSVINENLKDEIVVTVIATGFIEQEKDVTKPQRPSLNQSIKTHNQSVPKREPKREEPQQQNTVSRHTSQPADDTLDIPTFLRNRNKRG [chain 1 S219L], the response (% FtsZ in pellet) is 16 (1 mM GDP (control)) and 51 (1 mM GTP).
